According to patent US9845340B2, “Peptides that specifically bind HGF receptor (cMet) and uses thereof” (Dyax Corp., priority 2003, dated 2017):

What was measured:
cMet-Fc fusion protein = cMet-Fc fusion protein (Homo sapiens, UniProt P08581); assay: Protein phage ELISA: peptide-displaying phage binding to soluble cMet-Fc versus TRAIL-Fc; details: phage isolate; cMet-Fc vs. TRAIL-Fc
Outline: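 Plates coated with 0.5 μg/mL cMet-Fc or, as background, TRAIL-Fc, then blocked with 3% BSA in PBST. Peptide-displaying phage bound 2 h at room temperature. Detection with HRP-anti-M13 antibody.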

[1] = biological target: T1, 3T3 cells that over-express human cMet (Homo sapiens, UniProt P08581); assay: Whole cell ELISA of peptide-displaying phage; assay type: cell-based; details: phage isolate; 3T3 cells expressing human cMet vs. non-expressing 3T3 cells
T1 construct: expressed in transfected cells; host or cells: 3T3 cells
Outline: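 3T3 cells over-expressing human cMet seeded 10^5/well, pelleted and fixed with 0.1% glutaraldehyde 12 min at 37 °C. Blocked peptide-displaying phage bound 1 h at room temperature; after PBST wash, bound phage detected with HRP-conjugated anti-M13 antibody.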

Sequence of cMet-Fc fusion protein (P08581 25-307 limits assumed): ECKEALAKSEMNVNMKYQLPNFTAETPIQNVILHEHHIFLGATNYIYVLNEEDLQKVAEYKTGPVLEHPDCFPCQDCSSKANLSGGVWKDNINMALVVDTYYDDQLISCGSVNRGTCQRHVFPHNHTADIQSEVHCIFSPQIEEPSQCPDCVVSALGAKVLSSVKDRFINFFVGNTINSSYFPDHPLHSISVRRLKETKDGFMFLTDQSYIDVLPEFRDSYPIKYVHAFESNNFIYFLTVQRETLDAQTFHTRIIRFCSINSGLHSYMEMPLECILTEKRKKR
Sequence of cMet-Fc fusion protein (P08581 with tags, fused parts or gaps limits assumed): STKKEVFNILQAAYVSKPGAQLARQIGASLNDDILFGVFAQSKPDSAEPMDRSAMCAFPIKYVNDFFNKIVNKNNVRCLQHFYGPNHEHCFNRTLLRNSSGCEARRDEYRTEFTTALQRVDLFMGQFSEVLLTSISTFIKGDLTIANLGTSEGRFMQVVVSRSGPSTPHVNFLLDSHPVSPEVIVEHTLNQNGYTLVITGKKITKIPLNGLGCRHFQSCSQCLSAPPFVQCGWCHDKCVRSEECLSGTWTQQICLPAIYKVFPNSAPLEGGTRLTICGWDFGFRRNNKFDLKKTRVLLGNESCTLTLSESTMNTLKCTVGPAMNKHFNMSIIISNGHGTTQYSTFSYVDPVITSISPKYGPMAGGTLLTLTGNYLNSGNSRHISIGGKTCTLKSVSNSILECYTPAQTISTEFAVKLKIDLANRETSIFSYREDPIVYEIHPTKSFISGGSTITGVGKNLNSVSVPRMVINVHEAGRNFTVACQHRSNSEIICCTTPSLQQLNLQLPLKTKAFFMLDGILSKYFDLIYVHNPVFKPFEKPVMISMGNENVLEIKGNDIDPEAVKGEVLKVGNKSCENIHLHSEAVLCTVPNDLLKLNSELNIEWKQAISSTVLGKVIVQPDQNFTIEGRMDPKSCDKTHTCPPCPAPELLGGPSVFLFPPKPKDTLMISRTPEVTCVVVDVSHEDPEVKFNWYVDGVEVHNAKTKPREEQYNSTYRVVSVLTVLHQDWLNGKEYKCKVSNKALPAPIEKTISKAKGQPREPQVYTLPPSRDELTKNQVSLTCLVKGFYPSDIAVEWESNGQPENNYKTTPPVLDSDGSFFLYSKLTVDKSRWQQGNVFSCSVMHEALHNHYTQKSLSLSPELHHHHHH
T1 sequence (P08581 25-1390): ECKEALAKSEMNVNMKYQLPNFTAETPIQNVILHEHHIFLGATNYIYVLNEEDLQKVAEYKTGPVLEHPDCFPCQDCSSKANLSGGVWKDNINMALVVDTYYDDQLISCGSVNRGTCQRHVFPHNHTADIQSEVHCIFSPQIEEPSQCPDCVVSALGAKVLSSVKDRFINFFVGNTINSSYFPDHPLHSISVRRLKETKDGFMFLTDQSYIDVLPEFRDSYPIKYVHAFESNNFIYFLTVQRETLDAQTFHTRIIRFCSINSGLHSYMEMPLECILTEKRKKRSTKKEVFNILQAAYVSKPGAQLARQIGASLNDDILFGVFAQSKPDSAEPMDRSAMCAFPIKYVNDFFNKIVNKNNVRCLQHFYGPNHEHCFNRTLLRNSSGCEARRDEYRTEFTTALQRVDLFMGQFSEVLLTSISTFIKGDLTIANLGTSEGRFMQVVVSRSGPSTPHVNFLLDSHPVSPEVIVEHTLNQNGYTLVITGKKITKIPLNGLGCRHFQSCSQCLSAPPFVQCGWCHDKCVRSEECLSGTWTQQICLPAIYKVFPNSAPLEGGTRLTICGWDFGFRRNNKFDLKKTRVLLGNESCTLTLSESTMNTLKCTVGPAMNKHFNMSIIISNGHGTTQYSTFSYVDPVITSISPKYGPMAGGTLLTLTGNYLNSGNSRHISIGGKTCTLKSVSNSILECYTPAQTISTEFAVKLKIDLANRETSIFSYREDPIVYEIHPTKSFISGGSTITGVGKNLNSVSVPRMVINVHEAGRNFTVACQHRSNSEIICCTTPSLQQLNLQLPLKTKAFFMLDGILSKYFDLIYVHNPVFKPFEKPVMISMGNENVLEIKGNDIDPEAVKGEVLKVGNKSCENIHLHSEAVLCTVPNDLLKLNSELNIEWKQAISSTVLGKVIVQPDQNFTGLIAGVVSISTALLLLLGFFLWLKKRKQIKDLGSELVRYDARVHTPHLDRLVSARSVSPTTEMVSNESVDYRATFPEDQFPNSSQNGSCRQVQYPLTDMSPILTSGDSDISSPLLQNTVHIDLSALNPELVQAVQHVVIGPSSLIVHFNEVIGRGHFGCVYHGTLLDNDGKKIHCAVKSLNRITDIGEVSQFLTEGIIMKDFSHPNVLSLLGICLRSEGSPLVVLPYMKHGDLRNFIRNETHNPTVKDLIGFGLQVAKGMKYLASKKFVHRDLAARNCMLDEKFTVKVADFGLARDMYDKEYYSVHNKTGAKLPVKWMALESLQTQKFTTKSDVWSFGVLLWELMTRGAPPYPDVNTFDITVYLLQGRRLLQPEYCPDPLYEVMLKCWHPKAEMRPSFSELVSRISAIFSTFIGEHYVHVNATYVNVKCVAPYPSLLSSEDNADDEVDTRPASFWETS

Row | Molecule | Protein ELISA (cMet-Fc fusion protein) | WC ELISA [1]
1 | AGNYFCAGSPSFSCYFMGT (Synthetically generated cMet-binding peptide sequence) [SEQ ID NO: 054] | 13.4 fold over background | 1.33 fold over background
2 | AGVWICRVWDDECFFQGT (Synthetically generated cMet-binding peptide sequence) [SEQ ID NO: 020] | 3.7 fold over background | 1.37 fold over background
3 | CC[C@H](C)[C@@H]1NC(=O)[C@@H](NC(=O)[C@H](Cc2c[nH]cn2)NC(=O)[C@@H](NC(=O)[C@H](Cc2c[nH]c3ccccc23)NC(=O)CNC(=O)[C@H](C)NC(C)=O)[C@@H](C)O)CSSC[C@@H](C(=O)N[C@H](C(=O)N2CCC[C@H]2C(=O)N[C@@H](CCSC)C(=O)NCC(=O)N[C@H](C(=O)NCC(=O)NCC(=O)NCC(=O)N[C@@H](CCCCNC(=O)c2ccc3c(c2)C(=O)OC32c3ccc(O)cc3Oc3cc(O)ccc32)C(N)=O)[C@@H](C)O)[C@@H](C)CC)NC(=O)[C@H](CCC(=O)O)NC(=O)[C@H](Cc2ccccc2)NC(=O)[C@H]([C@@H](C)O)NC(=O)[C@@H]2CCCN2C(=O)[C@@H]2CCCN2C(=O)CNC1=O [SEQ ID NO: 052] | 8.0 fold over background | 1.30 fold over background
4 | AGKYMCEGFEWFCEMWGT (Synthetically generated cMet-binding peptide sequence) [SEQ ID NO: 037] | 4.1 fold over background | 1.43 fold over background
5 | AGLPKCSGPPWFSCYYGGT (Synthetically generated cMet-binding peptide sequence) [SEQ ID NO: 066] | 13.5 fold over background | 1.30 fold over background
6 | AGWWSCQWELNVCIWQGT (Synthetically generated cMet-binding peptide sequence) [SEQ ID NO: 016] | 4.1 fold over background | 1.33 fold over background
7 | AGWFECEFGFWGCNWLGT (Synthetically generated cMet-binding peptide sequence) [SEQ ID NO: 018] | 3.9 fold over background | 1.13 fold over background
8 | CC[C@H](C)[C@H](NC(=O)[C@H](Cc1c[nH]c2ccccc12)NC(=O)[C@H](CO)NC(=O)CNC(C)=O)C(=O)N[C@H](C(=O)N[C@H]1CSSC[C@@H](C(=O)NCC(=O)N[C@@H](CO)C(=O)N[C@@H](CO)C(=O)N[C@@H](C)C(=O)N2CCC[C@H]2C(=O)NCC(=O)NCC(=O)NCC(=O)N[C@@H](CCCCNC(=O)c2ccc3c(c2)C(=O)OC32c3ccc(O)cc3Oc3cc(O)ccc32)C(N)=O)NC(=O)[C@H](CC(N)=O)NC(=O)[C@H](CC(=O)O)NC(=O)[C@H](Cc2c[nH]c3ccccc23)NC(=O)[C@H](Cc2c[nH]c3ccccc23)NC1=O)[C@@H](C)CC [SEQ ID NO: 001] | 4.9 fold over background | 1.30 fold over background
9 | AGSWECTGPPSFHCQWYGT (Synthetically generated cMet-binding peptide sequence) [SEQ ID NO: 070] | 3.9 fold over background | 1.37 fold over background
10 | AGLLGCWDMPMECTGEGT (Synthetically generated cMet-binding peptide sequence) [SEQ ID NO: 036] | 3.6 fold over background | 1.27 fold over background
11 | AGKTVCQKWESVCSGMGT (Synthetically generated cMet-binding peptide sequence) [SEQ ID NO: 038] | 3.1 fold over background | 1.30 fold over background
12 | AGMDFCEGFWFLCIGNAT (Synthetically generated cMet-binding peptide sequence) [SEQ ID NO: 035] | 3.5 fold over background | 1.23 fold over background
13 | ADAWMCEYFQWNCGDKGT (Synthetically generated cMet-binding peptide sequence) [SEQ ID NO: 046] | 4.5 fold over background | 1.33 fold over background
14 | AGNYWCSGPPSFICHAVGT (Synthetically generated cMet-binding peptide sequence) [SEQ ID NO: 091] | 8.9 fold over background | 1.27 fold over background
15 | CC[C@H](C)[C@H](NC(=O)[C@H](CC(=O)O)NC(=O)CNC(=O)[C@H](C)NC(C)=O)C(=O)N[C@H](C(=O)N[C@H]1CSSC[C@@H](C(=O)N[C@@H](Cc2c[nH]c3ccccc23)C(=O)N[C@@H](CO)C(=O)N[C@@H](Cc2c[nH]c3ccccc23)C(=O)NCC(=O)N[C@H](C(=O)NCC(=O)NCC(=O)NCC(=O)N[C@@H](CCCCNC(=O)c2ccc3c(c2)C(=O)OC32c3ccc(O)cc3Oc3cc(O)ccc32)C(N)=O)[C@@H](C)O)NC(=O)[C@H](CCC(=O)O)NC(=O)[C@H](Cc2ccccc2)NC(=O)[C@H](Cc2ccc(O)cc2)NC(=O)[C@@H]2CCCN2C(=O)[C@H](Cc2c[nH]cn2)NC(=O)CNC(=O)[C@H]([C@@H](C)O)NC1=O)C(C)C [SEQ ID NO: 068] | 6.3 fold over background | 1.33 fold over background
16 | GSLIFCPYGECMMYAP (Synthetically generated cMet-binding peptide sequence) [SEQ ID NO: 005] | 3.5 fold over background | 1.33 fold over background
17 | GSFILCWWTFCDTNAP (Synthetically generated cMet-binding peptide sequence) [SEQ ID NO: 007] | 3.4 fold over background | 1.30 fold over background
18 | GSFNICPYQWCTLWAP (Synthetically generated cMet-binding peptide sequence) [SEQ ID NO: 010] | 3.0 fold over background | 1.37 fold over background

Other lines, results leading:

Row | Protein ELISA (cMet-Fc fusion protein) | WC ELISA [1] | Molecule
19 | 3.6 fold over background | 1.23 fold over background | AQELFQILEKQMWSDFMEWATP (Synthetically generated cMet-binding peptide sequence) [SEQ ID NO: 474]
20 | 9.7 fold over background | 1.27 fold over background | AGEIFCVGPPTFTCMWTGT (Synthetically generated cMet-binding peptide sequence) [SEQ ID NO: 096]
21 | 3.8 fold over background | 1.20 fold over background | AQAYEWWADESIFNHGYYWGHQ (Synthetically generated cMet-binding peptide sequence) [SEQ ID NO: 470]
22 | 4.3 fold over background | 1.33 fold over background | GSSARCDELINDFHSCLVMAP (Synthetically generated cMet-binding peptide sequence) [SEQ ID NO: 375]
23 | 3.9 fold over background | 1.23 fold over background | AQQWMFQIHQSMAWPYEWIDSY (Synthetically generated cMet-binding peptide sequence) [SEQ ID NO: 494]
24 | 7.7 fold over background | 1.30 fold over background | GSFAPCGWPSFAIDCIAEAP (Synthetically generated cMet-binding peptide sequence) [SEQ ID NO: 367]
25 | 35.3 fold over background | 1.37 fold over background | CC[C@H](C)[C@H](NC(=O)[C@@H]1CCCN1C(=O)[C@H](Cc1ccc(O)cc1)NC(=O)[C@H](CO)NC(=O)[C@H](CCSC)NC(=O)[C@H](C)NC(=O)[C@H](CC(C)C)NC(=O)[C@H](CCCCN)NC(=O)[C@H](Cc1ccc(O)cc1)NC(=O)[C@H](Cc1c[nH]cn1)NC(=O)[C@H](C)NC(=O)[C@H](CCC(=O)O)NC(=O)[C@@H]1CCCN1C(=O)[C@H](CCCNC(=N)N)NC(=O)[C@H](CCC(N)=O)NC(=O)[C@H](C)NC(C)=O)C(=O)N[C@H](C(=O)N1CCC[C@H]1C(=O)N[C@@H](CCCNC(=N)N)C(=O)N[C@H](C(=O)N[C@@H](CCCCN)C(=O)N[C@H](C(=O)NCC(=O)NCC(=O)NCC(=O)N[C@@H](CCCCNC(=O)c1ccc2c(c1)C(=O)OC21c2ccc(O)cc2Oc2cc(O)ccc21)C(N)=O)[C@@H](C)O)[C@@H](C)O)[C@@H](C)CC [SEQ ID NO: 452]
26 | 3.5 fold over background | 1.30 fold over background | AQFSGLVMYGRTHEVQWTFGSM (Synthetically generated cMet-binding peptide sequence) [SEQ ID NO: 477]
27 | 3.5 fold over background | 1.17 fold over background | AQHGYLSPLKQYQMSHVEFWTY (Synthetically generated cMet-binding peptide sequence) [SEQ ID NO: 476]
